In patent US20110288001A1, “BIOLOGICALLY ACTIVE PROTEINS ACTIVATABLE BY PEPTIDASE” (priority 2008, published 2011):

Legend:
[1] = target: human GLP1 receptor (human) (UniProt P43220); assay: cell-based or functional assay
[2] = in vivo; cited from earlier work
[3] = in vivo; cited from earlier work; remark: listed apart in the source
[4] = system: PB0967, GLP1-ELP construct with Met-Ala-Ala at the N-terminus (Met removed by E. coli), not treated with DPP-IV

UniProt P43220, sequence (P43220 24-463): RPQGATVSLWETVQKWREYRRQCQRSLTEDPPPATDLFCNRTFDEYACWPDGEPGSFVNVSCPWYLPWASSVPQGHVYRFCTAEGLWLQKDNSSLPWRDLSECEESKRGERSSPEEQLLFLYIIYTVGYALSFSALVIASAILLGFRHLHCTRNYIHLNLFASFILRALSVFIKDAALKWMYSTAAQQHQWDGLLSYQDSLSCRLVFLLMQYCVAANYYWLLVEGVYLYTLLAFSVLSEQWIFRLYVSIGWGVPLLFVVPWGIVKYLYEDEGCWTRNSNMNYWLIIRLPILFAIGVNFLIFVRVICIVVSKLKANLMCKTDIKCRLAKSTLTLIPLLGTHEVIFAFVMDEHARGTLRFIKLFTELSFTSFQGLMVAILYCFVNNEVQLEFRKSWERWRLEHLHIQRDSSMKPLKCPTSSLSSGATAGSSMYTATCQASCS

## Exendin-4 peptide
[1]
  EC50 in cAMP assay: 1 nM

## GLP-1: native glucagon-like peptide-1, physiological incretin originating from preproglucagon
[2]
  plasma half-life (t1/2): 1 to 2 min

## HSDAVFTDNYTRLRKQMAVKKYLNSILN [VIP]
[3]
  half-life in the blood: about two

## dipeptidyl peptidase-4 (DPP-IV)
[4]
  gain of cAMP activity of the substrate after DPP-IV treatment (enzyme processing): is activated if it is first treated with DPP-IV to remove the remaining Ala-Ala and expose the N-terminal His of GLP1
